Tests used:
[1] = target: T1, cIAP1 (Homo sapiens, UniProt Q13490); assay: In-vitro protein-binding assay, cIAP1; conditions: recombinant cIAP1 incubated with GST-SIVA2
Description: (§1) (A) Transfected SIVA2 binds to endogenous TRAF2. FLAG-SIVA2 or HIS-SIVA2 (control) was transfected into HEK293T cells. SIVA2 was immunoprecipitated using anti-FLAG M2 beads and the co-precipitated cellular TRAF2 was assayed by western blotting. The total cellular level of TRAF2 is shown at the bottom. (B) SIVA2 binds TRAF2 inducibly. Treatment of the cells EcR293-CD27-SIVA2 with ponasterone for 2 h to induce SIVA2, and treated with CD70 as indicated was followed by immunoprecipitation of TRAF2. […] FLAG-tagged TRAF2 was immunoprecipitated from transfected HEK293T cells with anti-FLAG M2 beads, eluted from the beads using FLAG peptide and incubated with GST-SIVA2 or its mutant, and then subjected to immunoprecipitation and western blotting as indicated. […] Left panel: Binding in vitro. Recombinant cIAP1 was incubated with GST-SIVA2 or its mutant. Right and bottom panels depict binding in transfected HEK293T cells. Right panel: Cells were transfected with HIS-SIVA2, HIS-SIVA2 (1-58), or FLAG-TRAF2. After 28 h the endogenous cIAP1 was immunoprecipitated. MG132 was applied for the last 6 h of incubation. Bottom panel: Cells were transfected with FLAG-SIVA2, FLAG-SIVA2 (1-58) or, as a specificity control, FLAG-GST-BR3-ICD* (in which the BAFF receptor intracellular domain is mutated at its TRAF3-binding region (PVPAT>AVAAA)). […] N/A, not analyzed. […]

[2] = target: T1, cIAP1; assay: In-vitro substrate ubiquitination assay, cIAP1; type: biochemical; conditions: recombinant cIAP1, E2 UbCH5b or Ubc13/Uev1a
Description: FIG. 9 SIVA2 mediates ubquitination of both TRAF2 and cIAP1. (A) cIAP-1 is required for SIVA2-mediated TRAF2 ubiquitination in cells. HEK293T cells were transfected with cIAP1 siRNA and, 24 h later, with the other plasmids as indicated. The extent of ubiquitination of the TRAF2 immunoprecipitated from the lysates of these cells, as well as the cellular levels of the endogenous cIAP1 and cIAP2 and the transfected ubiquitin, were determined by western blot analyses. (B) SIVA2, but not SIVA1, enhances K48-linked polyubiquitination of TRAF2 in cells. HEK293T cells grown in 90-mm plates were transfected by the calcium phosphate method with 4 μg of FLAG-TRAF2 (C34A), together with […] of HA-ubiquitin mutant plasmids and 6 μg of HIS-SIVA2 or HIS-SIVA2 (C73A) or HIS-SIVA1. The cells were lysed 24 h after transfection and TRAF2 was precipitated and analyzed as indicated. Wild-type SIVA2 and SIVA1, as well as SIVA2 (C73A) mutant, co-precipitated with TRAF2 (bottom panel). […]
In-vitro ubiquitination. […] Supernatants of the reaction were analyzed for free polyubiquitin chains formed in solution. For assay of self-ubiquitination of SIVA2 the glutathione beads were washed three times with a buffer containing 20 mM HEPES pH 7.6, 250 mM NaCl, 1 mM DTT, 1% Triton X-100 and Complete Protease Inhibitor Cocktail, boiled with LDS sample buffer (Invitrogen), and analyzed by western blotting. […]

[3] = target: T2, TRAF2 (Homo sapiens, UniProt Q12933); assay: In-vitro protein-binding assay, TRAF2; conditions: FLAG-TRAF2 incubated with GST-SIVA2
T2 construct: made in house; host or cells: HEK293T (FLAG-TRAF2); bacteria, pGEX2T (GST-SIVA2)
T2 sequence (Q12933 1-501): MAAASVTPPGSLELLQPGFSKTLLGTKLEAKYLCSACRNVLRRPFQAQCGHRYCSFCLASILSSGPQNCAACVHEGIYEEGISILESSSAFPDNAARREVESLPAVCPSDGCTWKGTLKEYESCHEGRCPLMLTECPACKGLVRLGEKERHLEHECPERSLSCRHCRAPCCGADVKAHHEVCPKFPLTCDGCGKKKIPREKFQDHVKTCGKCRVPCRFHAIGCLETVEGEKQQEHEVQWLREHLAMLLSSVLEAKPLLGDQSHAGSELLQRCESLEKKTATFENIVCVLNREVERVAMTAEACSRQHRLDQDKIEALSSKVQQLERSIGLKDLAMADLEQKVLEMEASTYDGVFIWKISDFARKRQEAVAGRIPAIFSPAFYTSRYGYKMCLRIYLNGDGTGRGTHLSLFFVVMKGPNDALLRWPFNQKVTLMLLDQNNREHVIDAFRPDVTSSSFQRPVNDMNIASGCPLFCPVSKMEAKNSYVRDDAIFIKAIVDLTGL
Description: as §1

T1 sequence (Q13490 whole entry, species assumed): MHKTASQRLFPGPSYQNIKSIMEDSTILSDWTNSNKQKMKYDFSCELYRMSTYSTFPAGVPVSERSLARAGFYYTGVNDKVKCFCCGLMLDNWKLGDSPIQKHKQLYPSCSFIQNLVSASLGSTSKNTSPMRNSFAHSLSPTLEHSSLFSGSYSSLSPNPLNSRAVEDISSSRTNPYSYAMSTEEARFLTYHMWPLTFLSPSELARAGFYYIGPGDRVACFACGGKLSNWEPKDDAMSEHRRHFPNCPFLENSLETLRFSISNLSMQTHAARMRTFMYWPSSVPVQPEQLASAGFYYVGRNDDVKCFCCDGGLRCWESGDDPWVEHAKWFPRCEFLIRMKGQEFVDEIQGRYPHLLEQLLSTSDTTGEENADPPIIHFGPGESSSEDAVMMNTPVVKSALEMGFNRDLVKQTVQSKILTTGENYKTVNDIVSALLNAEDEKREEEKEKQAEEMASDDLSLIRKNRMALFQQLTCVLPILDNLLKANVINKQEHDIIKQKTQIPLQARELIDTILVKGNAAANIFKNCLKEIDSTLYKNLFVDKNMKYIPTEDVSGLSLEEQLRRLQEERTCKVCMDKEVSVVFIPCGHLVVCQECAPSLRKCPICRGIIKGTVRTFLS

B1: SIVA2: short splice variant of SIVA, E3 ligase (NM—021709, SEQ ID NO:11); recombinant GST fusion in in-vitro tests (protein)
chain: MPKRSCPFADVAPLQLKVRVSQRELSRGVCAERYSQEVFDPSGVASIACSSCVRAVDGKAVCGQCERALCGQCVRTCWGCGSVACTLCGLVDCSDMYEKVLCTSCAMFET
modifications: left off: a dimerising Fc or GST; large carriers; small tags and cut ends
notes: recombinant GST fusion in in-vitro tests
- binding of SIVA2 to cIAP1 [1]: binds at its N-terminus to cIAP1
- ubiquitination of cIAP1 [2]: effectively ubiquitinated
- binding of SIVA2 to TRAF2 in vitro [3]: binds TRAF2 in vitro
